The series addresses MMLV RT N-terminal fragment (fingers/palm catalytic fragment) (Moloney murine leukemia virus, UniProt P03355 683-937). Briefly: X-ray crystallography.

Sequence of MMLV RT N-terminal fragment (fingers/palm catalytic fragment) (P03355 683-937): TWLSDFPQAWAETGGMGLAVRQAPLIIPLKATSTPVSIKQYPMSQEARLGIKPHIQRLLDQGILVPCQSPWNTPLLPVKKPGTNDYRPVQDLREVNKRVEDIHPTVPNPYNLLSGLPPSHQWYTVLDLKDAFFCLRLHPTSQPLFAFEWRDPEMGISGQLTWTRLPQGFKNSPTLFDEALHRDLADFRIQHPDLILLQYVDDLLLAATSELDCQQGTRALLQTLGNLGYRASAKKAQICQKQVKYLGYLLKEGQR

B1: 16mer d(CTTAATTCGAATTAAG)2 (dsDNA)
DNA 1: CTTAATTCGAATTAAG
DNA 2: CTTAATTCGAATTAAG
In the case of B1, the binding result is listed as “binds”.
